Reference: the RNAGym collection of RNA variant scans (doi:10.1093/nar/gkz1192)

B1: CPEB3 Ribozyme (parent)
chain: UAACAGGGGGCCACAGCAGAAGCGUUCACGUCGCAGCCCCUGUCAGAUUCUGGUGAAUCUGCGAAUUCUGCUGUAUAUCUC

Variants of: B1
Assay: self-cleavage, relative activity (ratio to wild type); higher = more cleavage; in vitro, sequencing
In short: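 After error-prone PCR and barcoding, CPEB3 ribozyme mutant libraries were transcribed with T7 RNA polymerase at 37°C for 5 hours, then given 15 min with DNase I before an EDTA stop, and they cleaved during both steps. Reverse transcription with template switching preceded Illumina sequencing. Relative activity divides a variant's cleaved/total read fraction by the unmutated ribozyme's. At least 5 reads were required per variant, and three batches were averaged.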

Variant	self-cleavage
UAACAGGGGGCCACAGCAGAAGCGUUCACGUCGCAGCUCCUGUCAGAUUCUGAUGAAUCUGCGAAUUCUGCUGUAUAUCUC	0.89
UAACAGGGGGCCACAGCAGAAGCGUUCACGUCGCAGCUCCCGUCAGAUUCUGGUGAAUCUGCGAAUUCUGCUGUAUAUCUC	0.87
UAACAGGGGGCCACAGCAGAAGCGUUCACGUCGCAGCUCCAGUCAGAUUCUGGUGAAUCUGCGAAUUCUGCUGUAUAUCUC	0.42
UAACAGGGGGCCACAGCAGAAGCGUUCACGUCGCAGCUCCGGUCAGAUUCUGGUGAAUCUGCGAAUUCUGCUGUAUAUCUC	0.42
UAACAGGGGGCCACAGCAGAAGCGUUCACGUCGCAGCCACUGUCGGAUUCUGGUGAAUCUGCGAAUUCUGCUGUAUAUCUC	0.33
UAACAGGGGGCCACAGCAGAAGCGUUCACGUCGCAGCUCCUGUCAGAUUCUGGUGAUUCUGCGAAUUCUGCUGUAUAUCUC	0.39
UAACAGGGGGCCACAGCAGAAGCGUUCACGUCGCAGCUCCUGUCAGAUUCUGGUGAGUCUGCGAAUUCUGCUGUAUAUCUC	0.39
UAACAGGGGGCCACAGCAGAAGCGUUCACGUCGCAGCUCCUGUCAGAUUCUGGUGAAUCUGCGAAUACUGCUGUAUAUCUC	0.41
UAACAGGGGGCCACAGCAGAAGCGUUCACGUCGCAGCGCCUGUCAGAUUCUGGUGAAUCUGCGAAUUCAGCUGUAUAUCUC	0.19
UAACAGGGGGCCACAGCAGAAGCGUUCACGUCGCAGCGCCUGUCAGAUUCUGGUGAAUCUGCGGAUUCUGCUGUAUAUCUC	0.2
UAACAGGGGGCCACAGCAGAAGCGUUCACGUCGCAGCUCCUGUCAGAUUCUGGUGAAUCUGCGAAUUCUGCCGUAUAUCUC	1.01
UAACAGGGGGCCACAGCAGAAGCGUUCACGUCGCAGCUCCUGUCAGAUUCUGGUGAAUCUGCGAAUUCUGCAGUAUAUCUC	0.37
UAACAGGGGGCCACAGCAGAAGCGUUCACGUCGCAGCUCCUGUCAGAUUCUGGUGAAUCUGCGAAUUCUGCUGUAUAUCGC	1.03
UAACAGGGGGCCACAGCAGAAGCGUUCACGUCGCAGCUCCUGUCAGAUUCUGGUGAAUCUGCGAAUUCUGCUGUAUAUCAC	0.96
UAACAGGGGGCCACAGCAGAAGCGUUCACGUCGCAGCUCCUGUCAGAUUCUGGUGAAUCUGCGAAUUCUGCUGUAUAUCCC	1.01
UAACAGGGGGCCACAGCAGAAGCGUUCACGUCGCAGCUCCUGUCAGAUUCUGGUGAAUCUGCGAAUUCUGCUGUAAAUCUC	1.16
UAACAGGGGGCCACAGCAGAAGCGUUCACGUCGCAGCUCCUGUCAGAUUCUGGUGAAUCUGCGAAUUCUGCUGUACAUCUC	1.01

Variant	self-cleavage
UAACAGGGGGCCACAGCAGAAGCGUUCACGUCGCAGCUCCUGUCAGAUUCUGGUGAAUCUGCGAAUUCUGCUGCAUAUCUC	1.26
UAACAGGGGGCCACAGCAGAAGCGUUCACGUCGCAGCUCCUGUCAGAUUCUGGUGAAUCUGCGAAUUCUGCUGAAUAUCUC	1.1
UAACAGGGGGCCACAGCAGAAGCGUUCACGUCGCAGCUCCUGUCAGAUUCUGGUGAAUCUGCGAAUUCUGCUGUAUGUCUC	0.74
UAACAGGGGGCCACAGCAGAAGCGUUCACGUCGCAGCUCCUGUCGGAUUCUGGUGAAUCUGCGAAUUCUGCUGUAUAUCUC	0.58
UAACAGGGGGCCACAGCAGAAGCGUUCACGUCGCAGCUCCUGUCUGAUUCUGGUGAAUCUGCGAAUUCUGCUGUAUAUCUC	0.35
UAACAGGGGGCCACAGCAGAAGCGUUCACGUCGCAGCUCCUGUCAGAUUCUGGUGAAUCUGCGAAUUCAGCUGUAUAUCUC	0.53
UAACAGGGGGCCACAGCAGAAGCGUUCACGUCGCAGCUCCUGUCAGAUUCUGGUGAAUCUGCGAAUUCCGCUGUAUAUCUC	0.38
UAACAGGGGGCCACAGCAGAAGCGUUCACGUCGCAGCUCCUGUCAGAUUCUGGUGAAUCUGCGAAUUCGGCUGUAUAUCUC	0.42
UAACAGGGGGCCACAGCAGAAGCGUUCACGUCGCAGCGCCCGUCAGAUUCUGGUGAAUCUGCGAAUUCUGCUGUAUAUCUC	0.19
UAACAGGGGGCCACAGCAGAAGCGUUCACGUCGCAGCGCCUGUCAGAUUCUGGUGAAUUUGCGAAUUCUGCUGUAUAUCUC	0.22
UAACAGGGGGCCACAGCAGAAGCGUUCACGUCGCAGCCACUGUCAGGUUCUGGUGAAUCUGCGAAUUCUGCUGUAUAUCUC	0.35
UAACAGGGGGCCACAGCAGAAGCGUUCACGUCGCAGCCACUGUCAGCUUCUGGUGAAUCUGCGAAUUCUGCUGUAUAUCUC	0.2
UAACAGGGGGCCACAGCAGAAGCGUUCACGUCGCAGCUCCUGUCAGAUUCUGGUGAAUCUGCAAAUUCUGCUGUAUAUCUC	0.6
UAACAGGGGGCCACAGCAGAAGCGUUCACGUCGCAGCUCCUGUCAGAUUCUGGUGAAUCUGCGAAUUCUGCUGUAUAUCUC	0.9
UAACAGGGGGCCACAGCAGAAGCGUUCACGUCGCAGCGCCUGUCAGAUUCUGGUGAAUCUGCGAAUUCUGCUGUAUAUCUC	0.26
UAACAGGGGGCCACAGCAGAAGCGUUCACGUCGCAGCGCCUGUCAGAUUCUGGUGAGUCUGCGAAUUCUGCUGUAUAUCUC	0.23
UAACAGGGGGCCACAGCAGAAGCGUUCACGUCGCAGCUUCUGUCAGAUUCUGGUGAAUCUGCGAAUUCUGCUGUAUAUCUC	0.26
